Columns and labels:
[1] = molecular target: YFPc-SpvC (Salmonella enterica subsp. enterica serovar Typhimurium strain 14028s) (UniProt P0A2M9); assay: split reporter (BiFC, NanoBiT); BiFC with YFPn and YFPc fusions co-expressed in Arabidopsis epidermal cells by particle bombardment together with p35S-mCherry; fluorescence observed 24-48 h after transformation by confocal microscopy; YFP-positive cells counted among mCherry-positive cells
[2] = molecular target: YFPn-SpvC (Salmonella enterica subsp. enterica serovar Typhimurium strain 14028s) (UniProt P0A2M9); assay: as above

Substance	percent of transformed cells with reconstituted YFP [1]	percent of transformed cells with reconstituted YFP [2]
YFPn-MPK6 (from UniProt Q39026 1-395)	18%	–
YFPc-MPK6 (from UniProt Q39026 1-395) (transformed cells)	–	34%

Source: paper PMC4201148
